Test results as given in the nanobody polyreactivity screen of Harvey et al. (2022).

Experiment: yeast display, Sf9 membrane polyspecificity reagent, FACS + sequencing; frameworks hold sequencing errors
Method in brief: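 Nanobodies came from a synthetic yeast display library in Saccharomyces cerevisiae BJ5465, induced with galactose for 36–48 hours and stained for 1 hour at 4 °C with 10% biotinylated, detergent-solubilized Sf9 membrane reagent. Cells were enriched on streptavidin microbeads and then FACS-sorted, with low and high (top ~1%) gates set on anti-HA fluorescence for expression and streptavidin fluorescence for reagent binding. Each polyreactivity label reflects the gate a clone came from. Genes were amplified by colony PCR, sequenced by MiSeq 2 × 250 and filtered by CDR length.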

QVQLVESRGGVVQAGGSLRLRCAASGRTFYRNVMGWSRQAPGKERELVAAITGDGGSTYYADSVKGRFTISRDNAKNTVYVQMNSQKAEVTAVYYCAASVYPQKRFFYWGHGTQVTVSS
polyreactivity (PSR sort gate): high polyreactivity

QVQLVESGGGLVQAGGSLRLTCAASGNTFNNNAMGWYRQAPGKERELVAAISGSGGSTYYADSVKGRFTISRDNAKNTVYLQMNSLKPEDTAVYYCAVRLVHGGKRYGYWGQGTQVTVSS
polyreactivity (PSR sort gate): high polyreactivity

QVQLVESGGGLVQAGGSLRLSCAASGFTFATNAMGWYTPAPGKERELVAVISSGGSTYYADSVKGLFTISRDNAKNTVYLQMNRLKPEDTAVYYCNAGRKVRGALDGYDYWGQGTQVTVSS
polyreactivity (PSR sort gate): high polyreactivity

QFQLVESGGGLVQAGGSLRLSCAASGRIFRYYSMGCYIQSPGKERELVAAITRGGSTNYADSVKGRFTISGDNANNNVYLQMNSLKPEDSAVYYCAVRGCYTWPTYNYWGHGTQVTVSS
polyreactivity (PSR sort gate): high polyreactivity

QVQLVESGGGLVQAGGSLRLSCAASGRIFGFNTMGWYRQAPGKERELVAAITSRDGRTYYADSVKGRFTISRDNAKNTVYLQMNSLKPEDTAVYYCATQYRWYAESHGLVTSVIMYSWGQGTQVTVSS
polyreactivity (PSR sort gate): low polyreactivity

QVQLVESGGGLVQAGGSLRLICAASGSTFLGYAMGWYRQAPGKERELVAAISSGGGTYADSVKGRFTISRDNAKNSVYLQMNSLKPEDTAVYYCNADYSTPYRMDYWGQGTQVTVSS
polyreactivity (PSR sort gate): low polyreactivity

QVQLVESGGGLVQAGGSLRLICAASGIIFQAYTMGWSRQAPGKERELVAAISYSGGSTYYADSVKGRFTISSDNAKNSVYLEMKSLKPEDTAVYYCARRSRYLWRYDYWGQGTQVTVSA
polyreactivity (PSR sort gate): high polyreactivity

QVQLVESGGGLVQAGGSLRLSCAASGRIFFRNAMGWYRQAPGKDRELVAAITWNGGSTYYADSVKGRFTISRDNAKNTVYLQMNSLKPEDTAVYYCATKTLSRTRTYYYWGQCTQVTVSS
polyreactivity (PSR sort gate): high polyreactivity

QVQLVESGGGLVQAGGSLRLSCAASGRIFKYYAMGWYRQAPGKERELVAAISTSVGSTYYADSVKGRFTISRDNAKNTVYLQMNSLKPEDTAVYYCNTRKYHYFLGGAAGNYWGQGTQVTVSS
polyreactivity (PSR sort gate): high polyreactivity

QVQLVESGGGLVQAGGSLRLSCAASGSTFGYYAMGWYRQAPGKERELVASITWGGGSTYYADSVKGRFTISRDNAKNTVYLQMNSLKPEDTAVYYCAATILGGTWGYGSYTYYYWGHGTQVTVSS
polyreactivity (PSR sort gate): low polyreactivity

QVQLVESGGGLVQAGGSLSLSCAASGRSFFNYAMGWYRQAPGKERELVAAISFSDGSTYYADSVKGRFTISRDNAKNTVYLQMNSLKPEDTAVYYCAAEPDYVYYRSDQALFDYWGQGTQVTVSS
polyreactivity (PSR sort gate): high polyreactivity

QVQLVESGGGLVQAGGSLRLSCAASGSILGGNTMGGYRQAPGKERELVAAISRSGGSTYYADSVKGRLTISRDNAKNTVYLQMNSLKPEDTAVYYCNRKQAGHAQGYDYWGQGTQVTVSS
polyreactivity (PSR sort gate): high polyreactivity

QVQLVESGGGLVQAGGSLRLSCAASGRILFSYAMGWYRQAPGKERELVATISSGGRTNYADSVKGRFTISRDNAKNTVYLQMNSLKPEDTAVYYCNTEYLVWYPYDYWGQGTQVTVSS
polyreactivity (PSR sort gate): low polyreactivity

QVQLVESGGGLVQAGGSLRLSCAASGSTFTLYAMGWYRQAPGKERELVAAITWRGGSTFYADSVKGRFTISRDNAKNTVYLQMNSLKPEDTAVYYCAADYYSYVVGRIDYWGQGTQVTVSS
polyreactivity (PSR sort gate): high polyreactivity

QVQLVESGGGLVQAGGSLRLSCAASGSIFSYYAMGWYRQAPGKERELVATITSSGSTYADSVKGRFTISRDNAKNTVYLQMNSLKPEDTAVYYCNADSGYSEYWGVDVAYDYWGQGTQVTVSS
polyreactivity (PSR sort gate): low polyreactivity

QVQLVESGGGLVQAVGSLRLSCAASGLIFWRNAMGWYRQAPGKERELVAAITYSGSRTYYADSVKGRFTISRDNAKNTVYLQMNSLKPEDTAVYYCNADYYWYPYEDDDWGQGTQVTVSS
polyreactivity (PSR sort gate): low polyreactivity

QVQLVESGGGLVQAGGSLRLSCAASGFTFRYYTMGWYRQAPGKERELVARITTGGSTYYADPVKGRFTISRDNAKKTVYLQMNSLKPEDTAVYFCAARLSRWWPPTGVHYTDRYYWGQGTQVTVSS
polyreactivity (PSR sort gate): high polyreactivity

QVQLVESGGGLVQAGGSLRLSCAASGSTFQYNVMGWYRQAPGKERELVATISYSSGRTYYADSVKGRFTISRDNAKNTVYLQMNSLKPEDTAVYYCAAAVRLYFWTSAYKYGYWGQGTQVTVSS
polyreactivity (PSR sort gate): high polyreactivity

QVQLVESGGGLVQAGGSLRLSCAASGRIFEGYAMGWYRQAPGKEELVAAITSDASTYYADSVKGRFTISRDNAKNTVYLQMNSLKPEDTAVYYCAADTYDNDYYYWGQGTQVTVSS
polyreactivity (PSR sort gate): high polyreactivity

QVQLVESGGGLVQAGGSLRLSCAASGRTLFSNAMGWYRQAPGKERELVASITSGDSTYYADSVKGRFTISRDNAKNTVYLQMNSLKPEDTSVYYCAADPSIVDGEYGYWGQGTQVTVSS
polyreactivity (PSR sort gate): low polyreactivity

QVQLVESGGGLVQAGGSLRLSCAASGRIFHYAIGWYRQAPGKESELVAGISKRGGSTYYADSVKGRFTISRDNAKNTVYLQMNSLKPEDTAVYYCSKEHYWTLNGLTSYYWGQGSQVTVSS
polyreactivity (PSR sort gate): high polyreactivity

QVQLVESGGGLVQAGGSLRLSCDASGFTIYRYAMGWYRQAPGKERELVAAISSGGGSTYYADSVKGRFTISRDNAKNTVYLQMYILKPEDNAVYYCNAQGFIYYWLRYDYWGQGTQVTVSS
polyreactivity (PSR sort gate): high polyreactivity

QVQLVESGGGLVQAGGSLRLSCAASGITFTGYAMGWYRPAPGKERELGAAITWSSGSTYYADSVKGRFTISRDNAKNTVYLQMNSLKPEDTAVYYCAAEVNVGTLLLSVIVEDGDYWGQGTQVTVSS
polyreactivity (PSR sort gate): low polyreactivity

QVQLVESGGGLVQAGGSLRLSCAASGFIFKRYAMGWYRQAPGKERELVAPITSNGGRTYYADSVKGRFTISRDNAKNTVYLQMNSLKPEHTAVYYCARDSQYYEQDDYWGQGTQVTVSS
polyreactivity (PSR sort gate): high polyreactivity

QVQLVESGGGLVQAGGSLRLICAASGSIFLQYTMGWYRQAPGKERELVAAITESDGSTYYADSVKGRFTISRDNAKNTVYLQMNSLKPEDTGVYYCAAEVVYFKYWDKYDYWGQGTQVTVSS
polyreactivity (PSR sort gate): low polyreactivity

QVQLVESGGGLVQAGGRLRLSCAASGIIFGYYAMGWYREAPGKEREFVAAINYSGVSTYYADSVKGRLTISRDNAKNTVYLQMNSLKPEDTAVYYCAADFRIVVYGWGGSHMDYWGQGTQVTVSS
polyreactivity (PSR sort gate): low polyreactivity

QVQLVESGGGLVQAGGSLRLSCAASGSNYRFYAMGWYRQAPGKERELVATISSSGGTTYYADSVKVRITISRDNAKNNVFLQMNSLKPEDTAVYYCAKDAFGWGRVYYYRSGYWGQGTQVTVSS
polyreactivity (PSR sort gate): high polyreactivity

QVQLVESGGGLVQAGGSLRLSCAASGFTFRRNAMGWYRQAPGKERELVAVITSSARTNYADSVKGRFTISRDNAKNTVYLQMNSLKPEDTAVYYCNAYRYRQSSSDKYGYWGQGTQVTVSS
polyreactivity (PSR sort gate): high polyreactivity

QVQLVESGGGLVQAGGSLRLSCAASGITFYYYAMGWYRQAPGKERELVAAINSGGITNYADSVKGRFTISRDNAKNTVYLQMNSLKPEDTAVYYCAASSGFRYRYGYWGQGTQVTVSS
polyreactivity (PSR sort gate): high polyreactivity

QVQLVESGGGLVQAGGNLRLSCAASGFIFTRNAMGWYRQAPGKERELVAAISTSGDRTYYADSVKGRFTISRDNAKNTVYLQMNSLKPEDTAVYYCAVVRPRYVVRYDYWGQGTQVNVSS
polyreactivity (PSR sort gate): high polyreactivity

QVRLVESGGGLVQAGGSLRLSCAASGRIFQYYSMGWYRQAPGKERELVASITSGGGSTYYADSVKGRFTISRDNAKNTVYLQMNSLKPEDTAVYYCNARWYGLSTRYDYWGQGTQVTVSS
polyreactivity (PSR sort gate): low polyreactivity
